Molecular target: depolymerase enzyme encoded by Klebsiella phage KP36 (depoKP36) (Klebsiella phage KP36)
Assay: SEC-MALS; 2 mg of purified, non-aggregated protein on an S200 10/30 column in 200 mM NaCl, 25 mM HEPES, 5% glycerol, pH 7.8; flow 0.5 mL/min

Sequence of depolymerase enzyme encoded by Klebsiella phage KP36 (depoKP36) (K9L8K6 whole entry): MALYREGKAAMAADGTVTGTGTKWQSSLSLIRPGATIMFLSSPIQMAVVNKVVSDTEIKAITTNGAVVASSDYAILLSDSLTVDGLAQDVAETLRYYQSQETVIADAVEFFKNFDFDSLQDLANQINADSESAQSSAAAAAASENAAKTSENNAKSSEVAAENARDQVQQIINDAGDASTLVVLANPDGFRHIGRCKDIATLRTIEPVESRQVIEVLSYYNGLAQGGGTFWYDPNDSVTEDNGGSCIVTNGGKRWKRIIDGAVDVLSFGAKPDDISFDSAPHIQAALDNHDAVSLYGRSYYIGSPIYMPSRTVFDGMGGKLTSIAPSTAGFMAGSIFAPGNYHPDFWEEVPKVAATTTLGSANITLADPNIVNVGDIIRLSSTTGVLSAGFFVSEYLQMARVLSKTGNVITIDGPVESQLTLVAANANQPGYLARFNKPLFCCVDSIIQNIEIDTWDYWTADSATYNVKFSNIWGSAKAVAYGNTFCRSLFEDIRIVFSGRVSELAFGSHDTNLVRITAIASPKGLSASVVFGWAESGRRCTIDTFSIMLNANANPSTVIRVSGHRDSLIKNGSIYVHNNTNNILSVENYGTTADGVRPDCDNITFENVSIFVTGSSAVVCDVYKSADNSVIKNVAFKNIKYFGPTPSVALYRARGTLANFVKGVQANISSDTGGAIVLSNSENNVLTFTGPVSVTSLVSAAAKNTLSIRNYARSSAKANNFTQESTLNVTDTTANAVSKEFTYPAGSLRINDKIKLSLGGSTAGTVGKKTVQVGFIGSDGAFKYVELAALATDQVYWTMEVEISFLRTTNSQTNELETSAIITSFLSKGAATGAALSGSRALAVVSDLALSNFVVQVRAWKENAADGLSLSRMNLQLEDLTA

Substance “depolymerase enzyme encoded by Klebsiella phage KP36 (depoKP36)” has a stoichiometry N of 3.
